Results taken from the supplement of paper PMC9170038.

Test system: MS2 coat protein
Assay: apparent KD of MS2 coat protein; designed switch direction (-1 OFF switch, 1 ON switch): -1; higher = weaker reporter binding
Procedure, shortened: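 SNAP-549-labelled MS2 coat protein was titrated, doubling from 0.7 or 1.5 nM to 3 µM, over designed RNA switches transcribed on Illumina chips by stalled E. coli RNA polymerase. Runs were done without input, with 200 uM small-molecule ligand, or with an oligonucleotide input. Apparent KD is the per-design median over clusters of curve-fitted normalised fluorescence.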

[1] = input ligand: microRNA oligo, concentration not stated
[2] = Eterna round: R95, input ligand: FMN 200 uM
[3] = Eterna round: R95, input ligand: microRNA oligo, concentration not stated
[4] = Eterna round: R95, input ligand: none

| Sequence | apparent KD of MS2 coat protein (input ligand: FMN 200 uM) [nM] | apparent KD of MS2 coat protein (input ligand: none) [nM] | apparent KD of MS2 coat protein [3] [nM] | further results |
| --- | --- | --- | --- | --- |
| UUGCAGUCGUCAGGAUAUAGUAUUACGGCCUUUCAUUUCUUCAUACAUGAGGAUCACCCAUGUCGCUAGAAGGGCUUAUCGCUU [salish99_ExNG2_r04_108] (Eterna round: R96, puzzle: Exclusion NG 2) |  |  |  | apparent KD of MS2 coat protein [1]: 11.1 nM |
| GGAGAGUGAGGAUAUACAUGAGGAUCACCCAUGUAUAUCAAAUAAAAUAAAUUCUCAUGUAGAAGGCGCUUUUC [Alacar 3rd Attempt] (Eterna round: R97, puzzle: Exclusion 3) | 16.2 | 14.4 |  |  |
| CACCGUUAGCGAGGAUAUCGUACAUGAGGAUCACCCAUGUAAUAAAUGAGAAUUUCGGAUGUAUGCGAGAAGGCGCAAAUCGGC [Ostracism 41 - Jieux - Exclusion NG 2] (Eterna round: R96, puzzle: Exclusion NG 2) |  |  |  | apparent KD of MS2 coat protein [1]: 45.3 nM |
| UUUAAUGGAAUUAAGAUCACAUGAGGAUCACCCAUGUAUAUAUAGGAUAUCAGCUCGUUUAGAGCUGAGAAGGAUAUAUACAUA [ExNG3/6-B2] (Eterna round: R96, puzzle: Exclusion NG 3) | 90.1 | 356 |  | apparent KD of MS2 coat protein [1]: 119 nM |
| UAAUUAAUAAGAUCAAUUAAUUAACAUGAGGAUCACCCAUGUGAGGAUAUCAGCUCGAUUAGAGCUGAGAAGGCACAAUAAUUA [ExNG3/17-C1] (Eterna round: R96, puzzle: Exclusion NG 3) |  |  |  | apparent KD of MS2 coat protein [1]: 39 nM |
| GCGCGCGUUGUGAGGAUAUCGGGCCCGAAAGGGCCCGAGAAGGCACAUGAGGAUCACCCAUGUAAGGUGUGUGU [-35.5, -34.8 kcal, A 23%, 0-6bis] (Eterna round: R97, puzzle: Brourd's mod of Exclusion 4) | 619 | 613 |  |  |
| GAUUAUGCGAGCUUUAGGGACAUGAGGAUCACCCAUGUUCGUCUUAUUGAUCUAGGUACACUGACAUACCUAAAUCU [JMF 66] (puzzle: Sensor v3, turn-off variant 1) |  |  | 39.9 | apparent KD of MS2 coat protein [2]: 23.7 nM; apparent KD of MS2 coat protein [4]: 24.5 nM |
| UGAUCUAGCGGAGGAUAUACAUGAGGAUCACCCAUGUAGACUCUAUGACCGUAGUCGUGGAGAGUGUAGAAGGCCGCUAGAUCU [JL ENG2 3.75] (Eterna round: R96, puzzle: Exclusion NG 2) | 16.6 | 13.1 |  | apparent KD of MS2 coat protein [1]: 8.79 nM |
| GAUCAUGCAGGAUAUACAUAAACCAUGAAAACAUGGAUCAAACAUGAGGAUCACCCAUGUAGAAGGGCAUGAUC [Omei Ex2 A20] (Eterna round: R97, puzzle: Exclusion 2) | 42 | 24.1 |  |  |
| UGCUGACGAGGAUAUACAUGAGGAUCACCCAUGUUGGUCAAGCGACUUCGGUCGCAAUGUAGAAGGCGUCAGCU [E3/8-A6] (Eterna round: R97, puzzle: Exclusion 3) | 186 | 395 |  |  |
| AGGUAACAUGAGGAUCACCCAUGUCAGGAUAUCAGUAAGAUGAGUAUAGAAUAGAGUAUGAGAAGGGACUAUAU [Excluse me! 24 - Jieux - Exclusion 1] (puzzle: Exclusion 1) |  |  | 30.4 |  |
| CAUGGAACGUAGGAUAUCUCACAGCCAGGCUGCAGAGAAGGACGUACAUGAGGAUCACCCAUGUAUGAUCCAAA [Tius] (puzzle: Exclusion 6) |  |  | 15.5 | apparent KD of MS2 coat protein [2]: 26.9 nM; apparent KD of MS2 coat protein [4]: 17.5 nM |
| AUUUUGUGAGGAUAUCAGGUGUGCUAGCGUACUGGUACAUCUGAGAAGGCACAUGAGGAUCACCCAUGUUUAUU [Mat - Exclusion 4 - Mod of JL - D39] (puzzle: Exclusion 4) |  |  | 25.6 |  |
| GCACGGUAAGUGAGGAUAUACCUCUGGAUACAGAGGUAGAAGGCACAUGAGGAUCACCCAUGUUCCUGCCGUGC [Fiskers BMX 4 - 89] (puzzle: Brourd's mod of Exclusion 4) |  |  | 15.9 |  |
| GUGUGCAGAGGAUAUACAUAGGAAAAUAAAAGAGAAGUGGGACAUGAGGAUCACCCAUGUAGAAGGCUGAGUGU [Excluse me!! 22 - Jieux - Exclusion 2] (puzzle: Exclusion 2) |  |  | 73.7 | apparent KD of MS2 coat protein [2]: 89.9 nM; apparent KD of MS2 coat protein [4]: 72.8 nM |
| UCAUACGUUGAGGAUAUCUCAGUUAGAAUAUUUAGAGAAGGCGAUACAUGAGGAUCACCCAUGUUUAUGGGCAU [Ex-6 Malc#6] (puzzle: Exclusion 6) |  |  | 286 | apparent KD of MS2 coat protein [2]: 346 nM; apparent KD of MS2 coat protein [4]: 461 nM |
| CAUGAUUGGGAAGGAUAUUGACCUAGUUAGUGCCGAGAAGGUCCCUUUCACAUGAGGAUCACCCAUGUGAGUCUGGUGUUCGAG [Ex NG1 #97] (Eterna round: R96, puzzle: Exclusion NG 1) | 43.1 | 30.5 |  | apparent KD of MS2 coat protein [1]: 23.7 nM |
| CUUUUGUGAGGAUAUCAGUAGUAAAUAAAUAAAUUUACUACUGAGAAGGCACAUGAGGAUCACCCAUGUUCCUC [salish99_ex3_r3_084] (puzzle: Exclusion 4) |  |  | 45.4 |  |
| UUUUCUUUUGUGAGGAUAUACUUCUUUUUUUUUUUGUAGAAGGCACAUGAGGAUCACCCAUGUUUUCUUUUCUG [JR_BME4_Sub027] (puzzle: Brourd's mod of Exclusion 4) |  |  | 22.1 |  |
| CUUUUGUGAGGAUAUUAAUAGUAAGUAAAUAAAAUUAUUACUAAGAAGGCACAUGAGGAUCACCCAUGUUCCUC [EX4 #82] (Eterna round: R97, puzzle: Exclusion 4) | 102 | 63.4 |  |  |
| AGCUGUGGCCGAGGAUAUCUAUUAAUCCAAACCGAAAUAUAAUCGGACAUGAGGAUCACCCAUGUAGAGAAGGCGGUCUCAGCA [Eli eng2 - 077] (Eterna round: R96, puzzle: Exclusion NG 2) |  |  |  | apparent KD of MS2 coat protein [1]: 53.5 nM |
| GACUGGACGUGGUCUGGUAACAUGAGGAUCACCCAUGUAGGUCUAAGAACAUGCCUUUUGCACGCUCGUCUUAUAUA [JR_SV3TOV1_Sub064] (puzzle: Sensor v3, turn-off variant 1) |  |  | 34.8 | apparent KD of MS2 coat protein [2]: 33.3 nM; apparent KD of MS2 coat protein [4]: 32.7 nM |
| AAAAAACAUGAGGAUCACCCAUGUCAGGAUAUCCGAAAAGAAAAAUAAAAAGAAAAAGGGAGAAGGGACAAAAA [April's ex-date #3] (puzzle: Exclusion 1) |  |  | 48.6 | apparent KD of MS2 coat protein [2]: 45.6 nM; apparent KD of MS2 coat protein [4]: 61.3 nM |
| GGUGGACAUGAGGAUCACCCAUGUGAGGAUAUCGGCUAUCUUCUCGCUGUCGGUUGCUCGAGAAGGCACAUUGU [Exclusion 1 V94] (puzzle: Exclusion 1) |  |  | 52.2 |  |
| AAAAGCCUAGGAUAUACUUGAGGAUCACCCAAGUAGGGUCCCAUGGACCCGUCCUCGUGUAGAAGGAGGAAAAG [Dierlabe] (Eterna round: R97, puzzle: Exclusion 3) | 156 | 60.5 |  |  |
